Publication PMC4522605, “Evolution of plant δ^1-pyrroline-5-carboxylate reductases from phylogenetic and structural perspectives” (Frontiers in Plant Science, 2015)

B1: Arabidopsis thaliana P5CR (δ1-pyrroline-5-carboxylate reductase) (enzyme, UniProt P54904 1-276, looked up)
chain: MEILPIPAESFKVGFIGAGKMAESIARGVVASGVLPPNRICTAVHSNLNRRDVFESFGVNVFSTSEEVVKESDVVIFSVKPQVVKKAVTELKSKLSKNKILVSVAAGIKLNDLQEWSGQDRFIRVMPNTPAAVGEAASVMSLGTGATEEDGAIVAMLFGAVGKILKADEKMFDAVTGLSGSGPAYIFLAIEALADGGVAAGLPRELALSLASQTVLGAATMVSKTGKHPGVLKDDVTSPGGTTIAGVHELEKGSFRATLMNAVVAAAKRSRELSQS
notes: Pyrroline-5-carboxylate reductase of Arabidopsis thaliana; coding gene cloned into pMCSG68 (construct as in Giberti et al., 2014); also called AtP5CR; P5C reductase; source: E. coli BL21 Gold, purified (HisTrap HP, TEV cleavage, second HisTrap HP pass); not shown: His6, N-terminal, cleaved; copies: 10

Assays:
[1] = biological target: Bacillus cereus P5CR (Bc_2977), full-length (Bacillus cereus); experiment: SEC; HiLoad 16/600 Superdex 200 Prep Grade; 1.5 mL of purified protein at ~5 mg/mL; run in lysis buffer (50 mM HEPES pH 8.0, 500 mM NaCl, 5% glycerol, 20 mM imidazole, 10 mM β-mercaptoethanol); calibrated with chymotrypsinogen A, albumin, SpP5CR decamer (275 kDa) and thyroglobulin
[2] = biological target: the molecule itself; experiment: as above

Molecule | stoichiometry N [1] | stoichiometry N [2]
Bacillus cereus P5CR (Bc_2977), full-length (enzyme) | 10 | –
B1 | – | 10
